Experimental data taken from US20190022211A1 (CELLTRION, published 2019).
Values joined by “and” are separate entries in the source; they are usually repeats but may differ in a detail not shown here. Equal values may be shown once.

How the values were obtained:
Test in all cases: cell-based or functional assay
[1] = biological target: G protein of rabies virus TX SK 4380 (Skunk, Texas, USA), on virus (rabies virus)
[2] = biological target: G protein of Wu ABLV (Australian bat lyssa, Genotype 7), on virus (Australian bat lyssa, Genotype 7)
[3] = biological target: G protein of rabies virus RAC (Raccoon, Georgia, USA), on virus (rabies virus)
[4] = biological target: G protein of rabies virus TXFX (Gray fox, TX), on virus (rabies virus)
[5] = biological target: G protein of rabies virus Dog thai (Dog, Thailand), on virus (rabies virus)
[6] = biological target: G protein of rabies virus Mongoose PR (Mongoose, Puerto-Rico), on virus (rabies virus)
[7] = biological target: G protein of rabies virus TN410 (Bat, Tennessee, USA), on virus (rabies virus)
[8] = biological target: G protein of rabies virus AK FX (Arctic Fox, Alaska, USA), on virus (rabies virus)
[9] = biological target: G protein of rabies virus CASK (Skunk, California, USA), on virus (rabies virus)
[10] = biological target: T1, G protein of rabies virus ERA, on virus (rabies virus, UniProt P03524 20-524)
T1 sequence: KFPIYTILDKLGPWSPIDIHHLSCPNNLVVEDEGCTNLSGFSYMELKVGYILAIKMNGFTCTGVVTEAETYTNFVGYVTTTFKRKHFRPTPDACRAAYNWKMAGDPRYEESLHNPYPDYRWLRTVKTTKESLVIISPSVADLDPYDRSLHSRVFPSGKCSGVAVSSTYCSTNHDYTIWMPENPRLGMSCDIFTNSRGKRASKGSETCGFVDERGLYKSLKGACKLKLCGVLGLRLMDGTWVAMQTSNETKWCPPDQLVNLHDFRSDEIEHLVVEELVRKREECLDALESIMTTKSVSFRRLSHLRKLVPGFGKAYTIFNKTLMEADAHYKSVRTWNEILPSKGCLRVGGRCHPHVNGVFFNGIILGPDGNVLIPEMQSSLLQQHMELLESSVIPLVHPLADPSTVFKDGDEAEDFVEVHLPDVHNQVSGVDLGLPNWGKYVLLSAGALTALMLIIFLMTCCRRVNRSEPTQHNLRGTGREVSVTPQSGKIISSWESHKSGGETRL

[11] = biological target: G protein of rabies virus TN-269 (Bat, Tennessee, USA), on virus (rabies virus)
[12] = biological target: G protein of rabies virus LC NY (Bat, New York, USA), on virus (rabies virus)
[13] = biological target: G protein of rabies virus Dog son (Dog, Mexico), on virus (rabies virus)
[14] = biological target: G protein of rabies virus TX SK 4384 (Skunk, Texas, USA), on virus (rabies virus)
[15] = biological target: G protein of rabies virus Dog Arg (Dog, Argentina), on virus (rabies virus)
[16] = biological target: G protein of rabies virus 3860 CA Bat (Bat, California, USA), on virus (rabies virus)
[17] = biological target: G protein of rabies virus AL Bat (Bat, California, USA), on virus (rabies virus)
[18] = biological target: G protein of rabies virus phi dog (Human/dog, Philippines), on virus (rabies virus)
[19] = biological target: G protein of rabies virus China dog 2005 (Dog, China), on virus (rabies virus)
[20] = biological target: G protein of rabies virus Myotis (Bat, Washington, USA), on virus (rabies virus)
[21] = biological target: G protein of rabies virus Sri Lanka (Cow, Sri Lanka), on virus (rabies virus)
[22] = biological target: G protein of rabies virus 857r (Raccoon dog, Russia, Far East), on virus (rabies virus)
[23] = biological target: G protein of rabies virus DR MX (Bat, Mexico), on virus (rabies virus)
[24] = biological target: G protein of rabies virus Gabon dog (Dog, Gabon), on virus (rabies virus)
[25] = biological target: G protein of rabies virus TN 132 (Bat, Tennessee, USA), on virus (rabies virus)
[26] = biological target: G protein of rabies virus C1434 (Bat, Alabama, USA), on virus (rabies virus)
[27] = biological target: G protein of rabies virus 323R (Dog/Coyote, Texas, USA), on virus (rabies virus)

B1: antibody 1 (antibody, V domains shown)
VH: VQLLQESGPGLAKPSETLSLICTVSGGSISRRRDYWGWIRQPPGRGLEWIGSFFHRGSTYYNPSLESRVSISVDPSKNQFSLHLSSVTVADTAVYYCARHPSTPFAEYLLLPDAFDSWGQGTLVTVSS
VL: DIVMTQSPATLSVSPGERATLSCRASQSVRSSLAWYQQRPGQAPRLLISGASTRATDIPARLSGSGSGTEFTLTVSSLQSEDFAVYYCQQYSDWPLTFGGGTKVEIKR
[1]
  neutralizing activity (RFFIT): 0.4 IU/mL and 2000 IU/mg
  neutralizing activity (RFFIT), Titer: 50
[2]
  neutralizing activity (RFFIT): 0.38 IU/mL and 1920 IU/mg
  neutralizing activity (RFFIT), Titer: 250
[3]
  neutralizing activity (RFFIT): 0.7 IU/mL and 3520 IU/mg
  neutralizing activity (RFFIT), Titer: 95
[4]
  neutralizing activity (RFFIT): 0.41 IU/mL and 2070 IU/mg
  neutralizing activity (RFFIT), Titer: 56
[5]
  neutralizing activity (RFFIT): 2.3 IU/mL and 2290 IU/mg
  neutralizing activity (RFFIT), Titer: 320
[6]
  neutralizing activity (RFFIT): 0.39 IU/mL and 1930 IU/mg
  neutralizing activity (RFFIT), Titer: 54
[7]
  neutralizing activity (RFFIT): 0.51 IU/mL and 2530 IU/mg
  neutralizing activity (RFFIT), Titer: 19
[8]
  neutralizing activity (RFFIT): 0.44 IU/mL and 2220 IU/mg
  neutralizing activity (RFFIT), Titer: 60
[9]
  neutralizing activity (RFFIT): 0.4 IU/mL and 2000 IU/mg
  neutralizing activity (RFFIT), Titer: 50
[10]
  neutralizing activity (RFFIT): 0.36 IU/mL and 1790 IU/mg
  neutralizing activity (RFFIT), Titer: 50
[11]
  neutralizing activity (RFFIT): 1.16 IU/mL and 5800 IU/mg
  neutralizing activity (RFFIT), Titer: 145
[12]
  neutralizing activity (RFFIT): 0.52 IU/mL and 2620 IU/mg
  neutralizing activity (RFFIT), Titer: 11
[13]
  neutralizing activity (RFFIT): 2.7 IU/mL and 2720 IU/mg
  neutralizing activity (RFFIT), Titer: 340
[14]
  neutralizing activity (RFFIT): 1070 IU/mg and 0.21 IU/mL
  neutralizing activity (RFFIT), Titer: 75
[15]
  neutralizing activity (RFFIT): 0.36 IU/mL and 1810 IU/mg
  neutralizing activity (RFFIT), Titer: 145
[16]
  neutralizing activity (RFFIT): 0.4 IU/mL and 2000 IU/mg
  neutralizing activity (RFFIT), Titer: 56
[17]
  neutralizing activity (RFFIT): 7.6 IU/mL and 7590 IU/mg
  neutralizing activity (RFFIT), Titer: 1100
[18]
  neutralizing activity (RFFIT): 0.28 IU/mL and 1390 IU/mg
  neutralizing activity (RFFIT), Titer: 75
[19]
  neutralizing activity (RFFIT): 0.43 IU/mL and 2140 IU/mg
  neutralizing activity (RFFIT), Titer: 12
[20]
  neutralizing activity (RFFIT): 1.64 IU/mL and 8210 IU/mg
  neutralizing activity (RFFIT), Titer: 230
[21]
  neutralizing activity (RFFIT): 0.43 IU/mL and 2160 IU/mg
  neutralizing activity (RFFIT), Titer: 54
[22]
  neutralizing activity (RFFIT): 2.8 IU/mL and 2800 IU/mg
  neutralizing activity (RFFIT), Titer: 56
[23]
  neutralizing activity (RFFIT): 2.4 IU/mL and 2380 IU/mg
  neutralizing activity (RFFIT), Titer: 250
[24]
  neutralizing activity (RFFIT): 0.41 IU/mL and 2030 IU/mg
  neutralizing activity (RFFIT), Titer: 65
[25]
  neutralizing activity (RFFIT): 2 IU/mL and 10000 IU/mg
  neutralizing activity (RFFIT), Titer: 56
[26]
  neutralizing activity (RFFIT): 0.51 IU/mL and 2530 IU/mg
  neutralizing activity (RFFIT), Titer: 19
[27]
  neutralizing activity (RFFIT): 0.33 IU/mL and 1670 IU/mg
  neutralizing activity (RFFIT), Titer: 60

B2: antibody 2 (antibody, V domains shown)
VH: EVQLVESGAEVKKPGASVKVSCKASGYTFTSYDISWVRQAPGQGLEWMGWISTYKGNTNFAQKFQDRVTLTTDTSTTTAYMELRSLTSDDTAVYYCARAKSHPFYDFWSAYYVPGAFDIWGQGTVVTVSS
VL: not shown
[1]
  neutralizing activity (RFFIT): 0.56 IU/mL and 2800 IU/mg
  neutralizing activity (RFFIT), Titer: 70
[2]
  neutralizing activity (RFFIT): 0.68 IU/mL and 3380 IU/mg
  neutralizing activity (RFFIT), Titer: 440
[3]
  neutralizing activity (RFFIT): 1.07 IU/mL and 5370 IU/mg
  neutralizing activity (RFFIT), Titer: 145
[4]
  neutralizing activity (RFFIT): 1.85 IU/mL and 9260 IU/mg
  neutralizing activity (RFFIT), Titer: 250
[5]
  neutralizing activity (RFFIT): 9.3 IU/mL and 9290 IU/mg
  neutralizing activity (RFFIT), Titer: 1300
[6]
  neutralizing activity (RFFIT): 0.4 IU/mL and 2000 IU/mg
  neutralizing activity (RFFIT), Titer: 56
[7]
  neutralizing activity (RFFIT): 5.33 IU/mL and 26700 IU/mg
  neutralizing activity (RFFIT), Titer: 200
[8]
  neutralizing activity (RFFIT): 2 IU/mL and 10000 IU/mg
  neutralizing activity (RFFIT), Titer: 270
[9]
  neutralizing activity (RFFIT): 0.43 IU/mL and 2160 IU/mg
  neutralizing activity (RFFIT), Titer: 54
[10]
  neutralizing activity (RFFIT): 1.79 IU/mL and 8930 IU/mg
  neutralizing activity (RFFIT), Titer: 250
[11]
  neutralizing activity (RFFIT): 3.12 IU/mL and 15600 IU/mg
  neutralizing activity (RFFIT), Titer: 390
[12]
  neutralizing activity (RFFIT): 2.14 IU/mL and 10700 IU/mg
  neutralizing activity (RFFIT), Titer: 45
[13]
  neutralizing activity (RFFIT): 8.8 IU/mL and 8800 IU/mg
  neutralizing activity (RFFIT), Titer: 1100
[14]
  neutralizing activity (RFFIT): 3570 IU/mg and 0.71 IU/mL
  neutralizing activity (RFFIT), Titer: 250
[15]
  neutralizing activity (RFFIT): 0.43 IU/mL and 2120 IU/mg
  neutralizing activity (RFFIT), Titer: 170
[16]
  neutralizing activity (RFFIT): 1.5 IU/mL and 7500 IU/mg
  neutralizing activity (RFFIT), Titer: 210
[17]
  neutralizing activity (RFFIT): 7.6 IU/mL and 7590 IU/mg
  neutralizing activity (RFFIT), Titer: 1100
[18]
  neutralizing activity (RFFIT): 1.04 IU/mL and 5180 IU/mg
  neutralizing activity (RFFIT), Titer: 280
[19]
  neutralizing activity (RFFIT): 0.46 IU/mL and 2320 IU/mg
  neutralizing activity (RFFIT), Titer: 13
[20]
  neutralizing activity (RFFIT): 2 IU/mL and 10000 IU/mg
  neutralizing activity (RFFIT), Titer: 280
[21]
  neutralizing activity (RFFIT): 0.4 IU/mL and 2000 IU/mg
  neutralizing activity (RFFIT), Titer: 50
[22]
  neutralizing activity (RFFIT): 2.7 IU/mL and 2700 IU/mg
  neutralizing activity (RFFIT), Titer: 54
[23]
  neutralizing activity (RFFIT): 1.7 IU/mL and 1710 IU/mg
  neutralizing activity (RFFIT), Titer: 180
[24]
  neutralizing activity (RFFIT): 1.06 IU/mL and 5310 IU/mg
  neutralizing activity (RFFIT), Titer: 170
[25]
  neutralizing activity (RFFIT): 10 IU/mL and 50000 IU/mg
  neutralizing activity (RFFIT), Titer: 280
[26]
  neutralizing activity (RFFIT): 0.96 IU/mL and 4800 IU/mg
  neutralizing activity (RFFIT), Titer: 36
[27]
  neutralizing activity (RFFIT): 3.47 IU/mL and 17400 IU/mg
  neutralizing activity (RFFIT), Titer: 625
